Entries after “also recorded” stand apart in the source; their conditions may differ.
Key:
[1] = test system: cholesterol biosynthesis; assay: Sterol analysis by HPLC of COS-7 cells metabolically labelled with [3H]-mevalonic acid; type: cell-based, green monkey; settings: 28 mM jervine
Protocol: Given the structural similarities of these compounds to cholesterol and the similar teratogenic effects of cholesterol synthesis inhibitors upon the offspring of pregnant rats, a reasonable mechanism to consider for the effects of these plant sterol derivatives was the inhibition of cholesterol biosynthesis. Accordingly, COST cultured cells treated with jervine were tested for defects in cholesterol biosynthesis by labelling with [3H]-mevalonic acid and then extracting and analyzing radiolabeled, non-saponifiable lipids.
Metabolic labeling and sterol analysis was essentially as described (Popjak et al. J. Biol. Chem. 264: 630-6238.1989; Rilling et al. 1993 Arch. Biochem. Biophys. 301: 210-215.), with minor modifications. Briefly, COS-7 cells were plated at ˜35% confluence into two 60 mm dishes at 37° C. in 4 ml each of Dulbecco's modified Eagle's medium (DMEM) supplemented with 10% fetal bovine serum (FBS). After 24 hr of growth the medium in each dish was replaced with 2 ml fresh medium with 10% FBS; [^3H]-mevalonic acid (NEN #NET 176) brought to a specific activity of 0.8 Ci/mmol in a 1% solution of bovine serum albumin was added to this medium to a final concentration of […]. At this time, one dish received […] of a 4 mg/ml solution of jervine in ethanol (final concentration 28 mM jervine), and the other received […] of ethanol. After 24 hr further incubation, cells were washed in PBS, extracted with methanol, and 1 M potassium hydroxide (KOH) added to 10%. Following a three hour incubation at 60° C., the methanol/KOH mixture was extracted with diethyl ether, the extract dried down, resuspended in isopropanol, and subjected to reverse phase HPLC analysis by the method of Rodriguez and Parks (Methods in Enzymology 111: 37-51 1985).

[2] = target: His6Hh-C protein (Drosophila melanogaster, UniProt Q02936, DEL89-254); assay: In vitro autocleavage reaction of bacterially expressed His6Hh-C protein (DTT / lipid stimulation); settings: lipid added with 1 mM DTT (cholesterol 0.35 mM)
[3] = test system: auto-proteolysis; assay: In vitro translation of wild-type and mutant Hh proteins (mapping of auto-proteolysis); type: biochemical, Drosophila; zebrafish
[4] = test system: Hh autoprocessing; assay: In vitro autocleavage assays of site-directed mutant His6Hh-C proteins; settings: 6 hours at 30° C.
[5] = test system: wg and dpp expression in imaginal discs; assay: Signaling in imaginal discs of thermally cycled larvae (wg-lacZ / dpp-lacZ, X-gal staining); settings: thermal cycling of larvae
Text: For studies of signaling in imaginal discs, a thermal cycler was utilized to subject larvae carrying heat shock-inducible hh constructs to successive rounds of heat shock and recovery. The effects of temperature cycling upon expression of dpp and wg in imaginal discs was examined by monitoring β-galactosidase expression from a reporter gene carrying dpp promoter sequences or from an enhancer detector P element inserted in the wg gene. In FIG. 7, X-gal staining was used to follow expression of wg FIG. 7 (A-C) or dpp FIG. 7 (D-L) in imaginal discs of late third-instar larvae that carry wg-lacZ or dpp-lacZ reporter genes.
Virgin female flies from the homozygous lines hshh (D. T. Chang et al., Development, 1994, in press), hshh H329A, and y^1 w^1118 were crossed to males from the homozygous BS3.0 line (bearing a P element dpp reporter construct on the 2nd chromosome, referred to as dpp-lacZ) (R. K. Blackman, et al., Development 111: 657, 1991) or the line y; Sco/CyO, enlacZ11::wg (bearing a wg reporter P element enhancer trap on a second chromosome balancer; called wg-lacZ) (J. A. Kassis, et al., Proc. Natl. Acad. Sci. U.S.A. 89; 1919, 1992). Progeny were grown at 25° C. in aerated 0.5-ml microcentrifuge tubes containing yeast paste until the late second instar or early third instar stage of larval development. […]

[6] = test system: wg expression; assay: Embryonic induction of wg expression after heat shock of hshh / hshh H329A embryos (in situ hybridization)
Text: To ascertain the importance of auto-proteolysis for these functions, the H329A mutant gene under control of the hsp 70 promoter was introduced by P element-mediated transformation into the Drosophila germline. The hshh H329A construct was made identically to the hshh construct with the use of a hh ORF fragment containing the H329A mutation. Transgenic flies were generated from a y^1 w^1118 parental strain using standard methods of P element mediated transformation (A. C. Spradling and G. M. Rubin, Science 218: 341 1982). […] To assay for expansion of wg stripes, embryos collected at 4 to 6 hours after egg laying (AEL) at 25° C. were subjected to the following heat shock protocols prior to fixation. Embryos receiving single shocks (10 or 30 minutes at 37° C.) were allowed to recover for 1 hour at 25° C. Embryos receiving double shocks (two 10 minute or two 30 minute shocks at 37° C.) were allowed to recover 90 minutes after the first shock and 40 minutes after the second (Both recoveries were at 25° C. The double 30 minute protocol was as previously described, (S. Krauss, supra). In situ hybridizations were performed as described (D. Tautz, Chromosoma 98: 81, 1989) using a wg specific probe (D. T. Chang et al., supra). Embryos assayed for cuticle phenotype were heat shocked 6 to 8 hours AEL for 30 minutes at 37° C., allowed to develop at 25° C. for 36 hours and then processed and mounted as described (M. Ashburner, Drosophila: A Laboratory Manual, Cold Spring Harbor Laboratory Press, New York, 1989).

[7] = test system: pax-2 and pax-6 expression; assay: Ectopic expression of twhh derivatives by mRNA injection into zebrafish embryos; type: in vivo; settings: mRNA injected embryos
Protocol: To gain insight into the potential roles of hh products in development, synthetic twhh and shh mRNA was injected into 1-8 cell embryos. This technique yields a mosaic but fairly uniform pattern of expression, as determined for the control mRNA encoding β-galactosidase (not shown). Uniformity of expression is in good agreement with fate mapping studies of the early zebrafish embryo (Kimmel & Warga, supra; Warga & Kimmel, supra; Heide, et al., Science, 265:517-520, 1994), which indicate that blastomeres undergo extensive cell mixing during the cleavages pnor to gastrulation.
Ectopic hh alters the expression of par-2, pax-6, and F-spondin. Zebrafish embryos were injected at the 1-8 cell stage with twhh or shh RNA and the pattern of pax-2, pax-6, or F-spondin expression was examined by whole mount in situ hybridization. […] At embryo stage, the anterior-posterior axis of the optic vesicle corresponds to the future proximal-distal axis of the eye. During the next hour of development, the posterior edge of the optic vesicle will separate from the diencephalon (Schmitt and Dowling, Comp. Neur., 344:532-542. 1994).
17(a) Cartoons of various twhh open reading frames. SS (shaded) is the predicted N-terminal signal sequence for secretion of these proteins and encompasses the first 27 amino acids of each open reading frame. The arrow indicates the predicted internal site of auto-proteolytic cleavage. Amino acid residue numbers are according to FIG. 13b. The filled triangle denotes the normal termination codon for the twhh open reading frame. Construct UHA contains a mutation that blocks auto-proteolysis (the histidine at residue 273 is changed to an alanine; see Lee, J. J., et al, supra.). Construct U356HA contains a stop codon in place of amino acid residue 357 as well as the H273A mutation in UHA. Construct N encodes just the first 200 amino acids of twhh. Construct C has had the codons for residues 31-197 deleted. […] Constructs were translated in vitro in the presence of ^35S methionine and analyzed by autoradiography after SDS-PAGE. The protein products are shown schematically to the left. […]

[8] = Heparin agarose binding of in vitro translated Hh protein species; set-up: species or system Drosophila; settings: wash with 0.1% Triton X-100 and 150 mM NaCl
Protocol: In vitro translations were performed with the use of the TNT coupled transcription-translation system (Promega). ^35S methionine (DuPont NEN) was used for detection by autoradiography. […] Samples were incubated at 4° C. for four hours with gentle rocking. After pelleting the beads, supernatants in some samples were analyzed (lanes 2 and 4). The beads were then washed 5 times with chilled HBB and samples (lanes 3 and 5) were subsequently eluted at 80° C. for 10 minutes in SDS PAGE loading buffer (F. M. Ausubel et al., supra).
One possible explanation for this differential behavior might be association of the N fragment with extracellular matrix proteins on the surfaces of the S2 cells. Accordingly, the relative affinity of these two proteins for heparin agarose was examined, since heparin binding is a common property of proteins that associate with the extracellular matrix. Given the obvious difficulty in obtaining soluble N from cultured cells, in vitro translation in the presence of microsomes was used to generate soluble, labelled N and C. […] Furthermore, N but not C was retained upon the heparin agarose beads upon extensive washing with a solution that contains 0.1% Triton X-100 and 150 mM NaCl; in contrast, neither fragment was retained by unmodified agarose. […]

Sequence of His6Hh-C protein (Q02936 other isoform, or with tags, fused parts or gaps DEL89-254): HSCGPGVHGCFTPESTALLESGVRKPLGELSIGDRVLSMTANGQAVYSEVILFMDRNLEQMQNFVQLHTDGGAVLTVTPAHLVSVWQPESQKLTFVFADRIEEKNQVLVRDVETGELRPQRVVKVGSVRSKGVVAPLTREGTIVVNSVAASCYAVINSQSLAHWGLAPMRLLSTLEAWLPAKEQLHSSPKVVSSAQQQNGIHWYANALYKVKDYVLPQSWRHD

What does the source list for `CC1=C2C(=O)[C@H]3[C@@H](CC=C4C[C@@H](O)CC[C@@]43C)[C@@H]2CC[C@]12O[C@@H]1C[C@H](C)CN[C@H]1[C@H]2C` [jervine]?
Accumulation of another radiolabeled sterol (tentatively zymosterol) ([1]; COS 7 cells, 24 hr): another radiolabeled sterol was found to accumulate; Radiolabeled cholesterol levels ([1]; COS 7 cells, 24 hr): reduced; Cholesterol biosynthesis in cultured cells ([1]; COS-7 cells): inhibits cholesterol biosynthesis

For `CC(C)CCC[C@@H](C)[C@H]1CC[C@H]2[C@@H]3CC=C4C[C@@H](O)CC[C@]4(C)[C@H]3CC[C@]12C` [cholesterol], which “Stimulation of His6Hh-C autocleavage in vitro” value [2] is on record?
The value was “stimulates His2Hh-C autocleavage; also recorded: displayed stimulatory activity similar to that observed with lipids extracted from spot B”.

B1: H329A: Drosophila Hh with His-329 to alanine; in vitro translated full length and His6Hh-C25 context (protein)
chain: CGPGRGLGRHRARNLYPLVLKQTIPNLSEYTNSASGPLEGVIRRDSPKFKDLVPNYNRDILFRDEEGTGADRLMSKRCKEKLNVLAYSVMNEWPGIRLLVTESWDEDYHHGQESLHYEGRAVTIATSDRDQSKYGMLARLAVEAGFDWVSYVSRRHIYCSVKSDSSISSHVHGCFTPESTALLESGVRKPLGELSIGDRVLSMTANGQAVYSEVILFMDRNLEQMQNFVQLHTDGGAVLTVTPAALVSVWQPESQKLTFVFADRIEEKNQVLVRDVETGELRPQRVVKVGSVRSKGVVAPLTREGTIVVNSVAASCYAVINSQSLAHWGLAPMRLLSTLEAWLPAKEQLHSSPKVVSSAQQQNGIHWYANALYKVKDYVLPQSWRHD
Which results are given for B1?
Auto-proteolysis (processing) of in vitro translated protein [3]: blocked or severely inhibited; Cholesterol-stimulated autocleavage (cholesterol transfer) ([4]; 350 μM cholesterol/1 mM DTT): inactive; DTT-stimulated autocleavage (thioester formation) ([4]; 50 mM DTT): inactive

B2: hshh H329A: heat shock-inducible hh with H329A mutation blocking auto-proteolysis (protein)
chain: B1 chain
Which “Expansion of dpp expression in the eye-antennal disc” value [5] does the source give for B2 here?
The value was “did not induce expansion of dpp expression”.

What about the “wg and dpp expression patterns in the leg disc” value [5] of the same molecule?
Its value is “produced little if any detectable difference in these patterns of expression”.

What about the “Expansion of wg expression beyond wild-type controls, average number of cell diameters ± standard deviation” value ([6]; minutes of heat shock: 10) of the same molecule?
Its value is 0.7 ± 0.5 cell diameters.

What about the “Expansion of wg expression beyond wild-type controls, average number of cell diameters ± standard deviation” value ([6]; minutes of heat shock: 10/10) of the same molecule?
Its value is 1.1 ± 0.4 (145) cell diameters.

And the “Expansion of wg expression beyond wild-type controls, average number of cell diameters ± standard deviation” value ([6]; minutes of heat shock: 30)?
Its value is 0.9 ± 0.4 (111) cell diameters.

What about the “Expansion of wg expression beyond wild-type controls, average number of cell diameters ± standard deviation” value ([6]; minutes of heat shock: 30/30) of the same molecule?
Its value is 1.9 ± 0.5 (93) cell diameters.

B3: UHA: twhh with H273A mutation that blocks auto-proteolysis (protein, UniProt Q90419 27-416, looked up, variant H273A)
Tiggy-winkle hedgehog protein: CGPGRGYGKRRHPKKLTPLAYKQFIPNVAEKTLGASGKYEGKITRNSERFKELIPNYNPDIIFKDEENTNADRLMTKRCKDKLNSLAISVMNHWPGVKLRVTEGWDEDGHHLEESLHYEGRAVDITTSDRDKSKYGMLSRLAVEAGFDWVYYESKAHIHCSVKAENSVAAKSGGCFPGSGTVTLGDGTRKPIKDLKVGDRVLAADEKGNVLISDFIMFIDHDPTTRRQFIVIETSEPFTKLTLTAAALVFVGNSSAASGITATFASNVKPGDTVLVWEDTCESLKSVTVKRIYTEEHEGSFAPVTAHGTIIVDQVLASCYAVIENHKWAHWAFAPVRLCHKLMTWLFPARESNVNFQEDGIHWYSNMLFHIGSWLLDRDSFHPLGILHLS
Which “Ectopic activation (induction) of pax-2 in the developing eye” value [7] does the source give for B3 here?
Its value is “only somewhat less active than C in inducing pax-2”.

And the “Repression of pax-6” value [7]?
Its value is “not able to repress pax6 efficiently”.

B4: U356HA: twhh with stop codon in place of residue 357 and the H273A mutation (protein, UniProt Q90419 27-416, looked up, variant H273A)
Tiggy-winkle hedgehog protein: B3 Tiggy-winkle hedgehog protein
modifications: truncated after residue 356
notes: twhh with stop codon in place of residue 357 and the H273A mutation
For B4, which “Repression of pax-6” value [7] is on record?
Its value is “activities not significantly different from N”.

B5: C-terminal fragment: Drosophila hh 25 kD C-terminal fragment (protein)
chain: CFTPESTALLESGVRKPLGELSIGDRVLSMTANGQAVYSEVILFMDRNLEQMQNFVQLHTDGGAVLTVTPAHLVSVWQPESQKLTFVFADRIEEKNQVLVRDVETGELRPQRVVKVGSVRSKGVVAPLTREGTIVVNSVAASCYAVINSQSLAHWGLAPMRLLSTLEAWLPAKEQLHSSPKVVSSAQQQNGIHWYANALYKVKDYVLPQSWRHD
For B5, which “Binding to heparin agarose” value [8] is on record?
Its value is “not bound effectively by heparin agarose”.
